Source: US20240192215A1 (E AND S HEALTHCARE, published 2024)

T1: Peptide_005 (human)
T1 construct: 15-mer on microarray; not native form, recombinant insert region
T1 peptide: ADVHSQHHHHHHHHV

T2: Peptide_013 (human)
T2 construct: 15-mer on microarray; not native form, includes recombinant insert region
T2 peptide: HHHHHHVKQIESKTA

T3: Peptide_018 (human)
T3 construct: 15-mer on microarray; not native form, includes recombinant insert region; also called HVKQIESKTAFQEAL
T3 peptide: HVKQIESKTAFQEAL

T4: Peptide_023 (human)
T4 construct: 15-mer of hTrx1 on microarray
T4 peptide: ESKTAFQEALDAAGD

T5: Peptide_019 (human)
T5 construct: 15-mer of hTrx1 on microarray
T5 peptide: VKQIESKTAFQEALD

T6: Peptide_020 (human)
T6 construct: 15-mer of hTrx1 on microarray
T6 peptide: KQIESKTAFQEALDA

T7: Peptide_086 (human)
T7 construct: 15-mer of hTrx1 on microarray
T7 peptide: CEVKCMPTFQFFKKG

T8: Peptide_022 (human)
T8 construct: 15-mer of hTrx1 on microarray
T8 peptide: IESKTAFQEALDAAG

T9: Peptide_021 (human)
T9 construct: 15-mer of hTrx1 on microarray
T9 peptide: QIESKTAFQEALDAA

T10: Peptide_025 (human)
T10 construct: 15-mer of hTrx1 on microarray
T10 peptide: KTAFQEALDAAGDKL

T11: Peptide_024 (human)
T11 construct: 15-mer of hTrx1 on microarray
T11 peptide: SKTAFQEALDAAGDK

T12: Peptide_094 (human)
T12 construct: 15-mer of hTrx1 on microarray
T12 peptide: FQFFKKGQKVGEFSG

T13: Peptide_051 (human)
T13 construct: 15-mer of hTrx1 on microarray
T13 peptide: PCKMIKPFFHSLSEK

T14: Peptide_092 (human)
T14 construct: 15-mer of hTrx1 on microarray
T14 peptide: PTFQFFKKGQKVGEF

T15: Peptide_093 (human)
T15 construct: 15-mer of hTrx1 on microarray
T15 peptide: TFQFFKKGQKVGEFS

T16: Peptide_085 (human)
T16 construct: 15-mer of hTrx1 on microarray
T16 peptide: ECEVKCMPTFQFFKK

T17: Peptide_012 (human)
T17 construct: 15-mer on microarray; not native form, includes recombinant insert region
T17 peptide: HHHHHHHVKQIESKT


Key:
Assay in all cases: peptide microarray, head 0.08 ug (text 0.008 ug/mL)
Peptide_005 = molecular target: T1, Peptide_005
Procedure: (§1) 5, 1, 0.2, 0.04, 0.008 and 0.0016 μg/mL serial dilutions were incubated on a single multi-well microarray slide at 30° C. for 1 hour. The slide includes 21 individual mini-arrays (one mini-array per sample dilution).
(§2) DyLight 650 was used as a label. False-positive binding to a peptide was evaluated by performing one additional control incubation in which only a secondary antibody was applied on the same microarray slide. Before performing each step, the microarrays were washed with a washing buffer.

Peptide_013 = molecular target: T2, Peptide_013
Procedure: as §1, §2

Peptide_018 = molecular target: T3, Peptide_018
Procedure: as §1, §2

Peptide_023 = molecular target: T4, Peptide_023
Procedure: as §1, §2

Peptide_019 = molecular target: T5, Peptide_019
Procedure: as §1, §2

Peptide_020 = molecular target: T6, Peptide_020
Procedure: as §1, §2

Peptide_086 = molecular target: T7, Peptide_086
Procedure: as §1, §2

Peptide_022 = molecular target: T8, Peptide_022
Procedure: as §1, §2

Peptide_021 = molecular target: T9, Peptide_021
Procedure: as §1, §2

Peptide_025 = molecular target: T10, Peptide_025
Procedure: as §1, §2

Peptide_024 = molecular target: T11, Peptide_024
Procedure: as §1, §2

Peptide_094 = molecular target: T12, Peptide_094
Procedure: as §1, §2

Peptide_051 = molecular target: T13, Peptide_051
Procedure: as §1, §2

Peptide_092 = molecular target: T14, Peptide_092
Procedure: as §1, §2

Peptide_093 = molecular target: T15, Peptide_093
Procedure: as §1, §2

Peptide_085 = molecular target: T16, Peptide_085
Procedure: as §1, §2

Peptide_012 = molecular target: T17, Peptide_012
Procedure: as §1, §2

signal (blank-control = 1) (Peptide_005)	signal (blank-control = 1) (Peptide_013)	signal (blank-control = 1) (Peptide_018)	signal (blank-control = 1) (Peptide_023)	signal (blank-control = 1) (Peptide_019)	signal (blank-control = 1) (Peptide_020)	signal (blank-control = 1) (Peptide_086)	signal (blank-control = 1) (Peptide_022)	signal (blank-control = 1) (Peptide_021)	signal (blank-control = 1) (Peptide_025)	signal (blank-control = 1) (Peptide_024)	signal (blank-control = 1) (Peptide_094)	signal (blank-control = 1) (Peptide_051)	signal (blank-control = 1) (Peptide_092)	signal (blank-control = 1) (Peptide_093)	signal (blank-control = 1) (Peptide_085)	signal (blank-control = 1) (Peptide_012)	Binder
1.28	–	–	–	–	–	–	–	–	–	–	–	–	–	–	–	–	monoclonal antibody B266-1 (antibody, human IgG1, B266 with the Fc part changed to human IgG1; also called B266-1 (Trx1-hIgG1); B266-1 (hTrx1-hIgG1)) light: QIVLTQSPAIMSASPGEKVTMTCSASSRISYMYWYQQKPGTSPKRWIYDTSKLASGVPARFSGSGSGTSYSLTISTMEAEDAATYYCHQRSSYPTFGAGTKLELKSVAAPSVFIFPPSDEQLKSGTASVVCLLNNFYPREAKVQWKVDNALQSGNSQESVTEQDSKDSTYSLSSTLTLSKADYEKHKVYACEVTHQGLSSPVTKSFNRGEC heavy: not shown
–	0.95	0.85	0.91	1.02	0.8	1.02	1	0.84	1.03	1	1	0.7	3.07	1.53	0.9	0.88	monoclonal antibody B264 (antibody, mouse IgG1, kappa, V domains shown, also called AB264; B264 (Trx1-mIgG1)) VH: QVQLQQSGAELARPGASVKMSCKASGYTFTSYTMHWVKQRPGQGLEWIGYINPTSDYTNYNQKFKDKATLTADKSSSTAYMQLSSLTSEDSAVYFCASEGGFLYYFDYWGQGTTLTVSS VL: DVLMTQTPLSLPVSLGDQASISCRSSQSIVHSNGNTYLEWYLQKPGQSPKLLIYKVSNRFSGVPDRFSGSGSGTDFTLKISRVEAEDLGVYYCFQGSHVPYTFGGGTKLEIKR
